Measured values reported in the nanobody polyreactivity screen of Harvey et al. (2022).

Assay: yeast display, Sf9 membrane polyspecificity reagent, FACS + sequencing; frameworks hold sequencing errors
Summary of the method: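 In a synthetic yeast display library (Saccharomyces cerevisiae BJ5465), nanobody expression was induced with galactose for 36–48 hours. FACS gates were set low and high (top ~1%) using anti-HA fluorescence for expression and streptavidin fluorescence for binding of the Sf9 membrane reagent. Each polyreactivity label is drawn from the gate of origin.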

Sequence	polyreactivity (PSR sort gate)
QVQLVESGGGLVQAGGSLRLICSASGTTFPVYVMGRYRHAPGKERELVAAISRSGTSTYYADSVKGRFTISRDNAKNTVYLQMNSLKPEDTAVYYCAAQLYGHGEDYWGQGTQVTVSS	high polyreactivity
QVQLVESGGGLVQAGGSLRLSCAASGSTFEYYAMGWYRQAPGKERELVAGISTGGSTNYADSVKGRFTISRDNAKNTVYVQMNSLKTEDSAVYYCKRDWALYVFCRHYHAYYSWGQRTQVTVSS	low polyreactivity
QVQLVESGGGLVQAGGSLRLSCAASGRTFNYYAMGWYRQAPGKERELVAAISGSGGRTYYADSVKGRFTISRDNAKNTVYLQMNSLKPEDTAVYYCNADVGKYPYAHTYWARRYYYLGQGTQVTVSS	high polyreactivity
QVQLVESGGGLVQAGGSLRLSCAASGSIITPYTMGWYRQAPGKERELVAAITGSAGSTYYADSVKGRFTISRDNAKNTVYLQMNSLKPEDTAVYYCAAAVWGVYQWYYYWGQGTQVTVSS	high polyreactivity
QVQLEESGGGLVQAGGSLRISSAASGSTLGSNAMGWYRQAPGKEMELVAAITWSGGTTYYADSVKGRFTIARDNPKNTVSLQMNSLKPEDTAVYYCATGQSVIYRYEYWGQGTQVTVSS	low polyreactivity
QVQLVESGGGLVQAGGSLRLSCAASGYTFRKYAMGWYRQAPGKERELVAAITYTGGSTYYADSVKGRFTISRDNAKNTVYLQMNSLKPEDTAVYYCARRYRWGEYGYWGQGTQVTVSS	high polyreactivity
QVQLVESGGGLVQAGGSLRLSCAASGFIFYKNAMGWYRQAPGKERQLVAAINFSTGRTYYADSVKGRFTISRDNAKNTVYLQMNSLKPEDTAVYYCASKSANPRKYYYWGQGTQVTVSS	high polyreactivity
QVQLVESGGGLVQAGGSLRLSCAASGFTLFQNAMGWYRQAPGKERELVAAISTGGSTYYADSVKGRFTISRDNAKNTVYLQMNSLKPEDTAVYYCAAVWPYRGSRKYYSWGQGTQVTVSS	high polyreactivity
QVQLVESGGGLVQAGGSLRLSCAASGLILYSYTMGRYRHAPGKERELVAVISRSGTSTYYADSVKGRFTISRDNAKNTVYLQMNSLKREDTSFYFCAALSRSGPYAYEYWGQGTQVSVSS	high polyreactivity
QVQLVESGGGLVQAGGSLRLSCAASGFTFAYYAMGWYRQAPGKERELVASISYNGGITNYADSVKGRFTISRDNAKNTVYLQMNSLKPEDTSVYYCNAVPHYYWRFDYWGQGTQVTVSS	low polyreactivity
QDQQVESGGGLVQAGGSLRLSCAASGFTFRKKAKGWYRQAPGKERELVAAISASGGSTYYADSVKGRFTISRDNAKNTVYLQMNSLKPEDTDVFYCARDRSNAFNYWGQGTQVTVSS	high polyreactivity
QVQLVESGGGLVQAGGSLRLSCAASGFNFTGYTMGWYRQAPGTERELVAAISSSGGSTYYADSVKGRFTISRDNAKNTVYLQMNSLKPEDTAVDYCNAPRYRPGYWYDYWGQGTQVNVSS	high polyreactivity
QVQLVESGGGLVQAGGSLRLSCAASGITFYVNAMGWYRKAPGKERELVAGITLSGDSTYYADSVKGRFTISRDNAKNTVYLQMNSLKPEDTAVYYCAVEGGLWWPYTYYYWGQGTQVTVSS	high polyreactivity
QVQLVESCGGLVQAGGSLRLICAASGSIFFRNAKGWYRQAPGKERELVAAIRYTGTSTYYADSVKGRFTISRDNAKNTVYVQMNSLKPEDTAVYYCAKPWGSVRRREMDYWGQGTQVTVSS	low polyreactivity
QVQLVESGGGLVQAGGSLRLSCAASGSTIYRYAMGWYRQAPGKERELVATISRTGARTNYADSVKGRFTISRDNAKNTVYLQMNSLKPEDTAVYYCAASAPYIYYWGQGTQVTVSS	high polyreactivity
QVQLVESGGGLVQAGGSLRLSCAASGYIFYFNAMGWYRQAPGKERELVAAISSRGTGTYADSVKGRFTISRDNAKNTVYLQMNSLKPEDTAVYYCNAYPSIYPGFYKTFFNMDYWGQGTQVTVSS	low polyreactivity
QVQLVESGGGLVQAGGSLRLSCAASGITFYSYTMGWYIQAPGKERELVAAISDNGGRTFYADSVKGRFTISRDNAKNTVYLQMNSLKPEDTAVYYCAADSYWYRFLKSRYDYWGQGTQVTVSS	low polyreactivity
QVQLVESGGGLVQAGGILRLSCAASGRIFYINAMGWYRQAPGKERELVATISWSGGSTNYADSVKGRFTISRDNAKNTVYLQMKSLIPEDTAVYYCAADSRIYIAYAVRSYERDYWGQGTQVSVSS	low polyreactivity
QVQLVESGGGLVQAGGSLRLSCAASGNIFYRYAMGWYRQAPGKERELVAAIRSGSSTNYADSVKGRFTISRDNAKNTVYLQMNSLKPEDTAVYYCAARSKYTHSRQSDYWGQGTQVTVSS	low polyreactivity
QVQLVESGGGLVQAGGSLRLSCAASGRTFVQYVMGWYRQAPGKERELVARISSGGSTFYADSVKGRFTISRDNAKNSVYLQLNSLKPEDTAVYYCAAQWTRYRRRPMDYWGQGTQVTVSS	high polyreactivity
QVQLVESGGGLVQAGGSLRLSCAASGSIFQSYDMGWYRQAPGKERELVAAIRSGDSTYYADSVKGRFTISRDNAKNTVYLQMNSLKPEDTAVYYCNKDEATFLSKDGYWGQGTQVTVSS	low polyreactivity
QVQLVESGGGLVQAGGSLRLSCAASGIIFRVYTMGWYRQAPGKERELVAGISSGDSTSYADSVKGRFTISRDNAKNTVYLQMNSLKPEDTAVYYCNAVAYYSYSANFRNAYDYWGQGTQVTVSS	low polyreactivity

Sequence	polyreactivity (PSR sort gate)
QVQLQESGGGLVQAGGDLRLSCAASGNIFRDYIMGWNRQAPGKEREFVAGIDRGANTNYADSVKGRFTISRDNAKNTVYLQMNSLKPEDTAVYYCAVHTDIVPDFIYWGQGTQVTVSS	low polyreactivity
QVQLVESGGGLYQAGGSLRLSCAASGFILSTNVMGWYRQAPGKEREKVAAISARGGSTYYADSVKGRFTISRDNAKNTVYLQMNILKPEDTAVYYCAARVYVSRSKRLNYWGQGTQVTVSS	high polyreactivity
QVQLVESCGGLVQAGGILRLSCADYGSIFYYNAMGWYRQAPGKERQLVAAITRSGSTNYAESVKLRFTISRDNAKNTVYLQMNSLKPEDTAVYYCAAPWRGSVFRYYSWGQGTQVTVSS	low polyreactivity
QVQLVESGGGLVQAGGSLRLSCAASGFIFRSYAMGWYRQAPGKERELVAAISSSGGRTYYADSVKGRFTISRDNAKNTVYLQMNSLKPEDTAVYYCATSLYTDNSWDNYWGQGTQVTVSS	high polyreactivity
QVQLVESGGGLVQSGGSLRLSCAASGFTFYRYTMGWYRQAPGKERELVAISSDGSTNYADSVKGRFTISRDNAKNTVYLQMNSLKPEDTAVYYCNAVYYNWIGFDYWGQGTQVTVSS	low polyreactivity
QVQLVESGVGLVQAGGSLRLSCAASGRTFRSYTMGWYRQAPGKERELVAAINRGDRTYADSVKGRFTISRDNAKNTVYLQMNSLKPEDTAVYYCNARYYTHRYDYWGQGTQVTVSS	high polyreactivity
QVQLVESGGRLVQAGGSLRLTCAATGRTFVRNPMGSYRQAPGKERELVATIRSGGSTNYADSVKGRFTISRDNAKNTVYLQMNSLKPEDTAVYYCATQGSRARYDYYYWGQGTQVTVSS	high polyreactivity
QVLLQESGGGLVQAGGSLRLSCAASGSIFLFYTMGWSRQAPVKEREFVAGITLGTTTYNADSVKGRFTISRDNVKNTVYLQMNSLKPEDTAVYYCAVAVGHYTEFWYWGQGTQVTMSS	high polyreactivity
QVQLVDSGGGLVQAGGSLRLSCAASGSTFSYYAMGWYRQAPGKERELVAAISYSGDSTYYADTVKGRFTISRDNAKNTVYLQMNSLKPEDSAVYYCNADSPFNGNLDRYFATLDDYWGQGTQVTVSS	low polyreactivity
QVQLVESGGGLVQAGGRLRLSCAASGSIFGRNAMGWYRAAPGKERELVAAITGSTYYADSVKGRFTSSRDNAKNTVYLQMNSLKPEDTAVYYCNADYDVGWTYDTEYNYWGQGTQVTVSS	low polyreactivity
QVQLVESGGGLVQAGGSLRLSCAPSRRIFRSYAMGWYSQAPGKERELVAAISSRGSTYYADSVKGRFTISRDNEKNTVFLQMNSLKPEDTAVYYCAVHLWVYPLKREFYWGQGTQVTVSS	high polyreactivity
QVQLVESGGGLVQAGGSLRLICAASGIIFNHNAMGWYRQAPGKERELVAAITLSGGTTYYADSVKGRFTISRDNAKNTVYVQMNSLKPEDTALYYCATRSYILGWRYDYWGQGTQVTVSS	high polyreactivity
QVQLVESWGGLVQAGGSLRLSCAASGRIFKLYAMGWYRQAPGKERELVAGINWSGGTTYYAESVKGRFTISRDNAKNTVYLQMNSLKPEDTAVYYCAARTRNGAGYYWGQGTQVTVSS	high polyreactivity
QVQLVESGGVLVQAGGSLRLSCAASGRTLRSYAMGWYRHAPGKERELVAAISRSGGSTYYADSVKGRFTISRDNAKNTVYLQMNSLKPEDTAVYYCATRYLGRLDYWGQGTQVTVSS	high polyreactivity
QVQIVESGGGLVQAGGSLRLSCAASGGTFLPYAMGSYRQAPGKERELVATITLIGDSTYYADSVKGRFTISRDNAKNTVYLQMNSLKPEDTAVYYCAARPVTSYAYGSWGQGSQVTVSS	low polyreactivity
QVQLVESGGGLVQAGGSLRLSCAASGGIFSQYAMGWYRQAPGKERELVAAINSGVGTNYADSVKGRFTISRDNAKNTVFLQMNSLKPEDTAVYYCAATDDRLWTFDVASYRNDYWGQGTQVTVSS	low polyreactivity
QVQLVESVGGLVQAGVSLRLSSAASGSTLKQYAMGWFRQSPGKERELVGAITRSGSSTYYADSVKGRFTISRDNAKNTVYLPMNRLKREDTAVYYCDVGCWKGDYYWGLGTQVTVSS	high polyreactivity
QVQLVESGGGLVQAGGSLRLSCAASGIIFGRYAMGWYRQAPGKEREFVAAITWRVGTTYYADSVKGRFTISRDNAKNTVYLQMNSLKPEDTAVYYCAARSRTGRYDYWGQGTQVTVSS	high polyreactivity
QVQLVEPGGGLVQAGGSLRLSCAASGSTFVEYDMGWYRQAPGKERELVAGINSGDRTNYADSVKGRFTISRDNEKNTVYLQMNSLKPEDTAVYYCAVDYRSYAYDYWGQGTQVSVSS	low polyreactivity
QVQLVESGGGLVQAGGSLRLSCAASGRIFYSNTMGWYRQAPGKERELVAAISRSGGRTYYADSVKGRFTISRDNAKHTVYLQMNSLKPEDTAVYYCNTAYYRNPYYKGYYWGQGTQVTVSS	high polyreactivity
QVQLVESGGGLVQAGGSLRLSCAASGFIFPGYAMGSYRQAPGKERELVAAISRRGGRTYYADSVKGRFTISRDNAKNTVYLQMNSLKPEDTAVYYCAAVVQSTQYICDYWGQGTQVTVSS	high polyreactivity
